Square brackets hold non-standard residues; d marks the D form. Ends that are not written are not given here. * marks the point of attachment. hArg = N=C(N)NCCCC[C@H](N)C(=O)O; Pentanoyl = CCCCC(=O)*
Columns and labels:
[1] = target: T1, His-tagged, full-length PCSK9 (human, UniProt Q8NBP7 31-692); test: TR-FRET competition; His-PCSK9, competitor EGF(A)-Fc
T1 construct: The secreted protein is autocleaved into a prodomain and a catalytic/Cys-rich chain that starts at S153; also called His-PCSK9
Method: (§1) Signal generation in the PCSK9 binding assays was dependent upon the binding interaction to bring into close proximity the His-tag on the PCSK9 and the Fc-tag on the ligand. Anti-His-APC was bound to the His-tag, and anti-Fc-europium was bound to the Fc-tag.
(§2) Compounds were solubilized and dilutions were prepared in DMSO. […] The plate was centrifuged to mix the well contents and allowed to incubate for 30 min. […] The normalized TR-FRET ratios were plotted as a function of the compound concentrations, and the IC₅₀ values were determined using a 4-parameter logistic regression.

[2] = target: T2, His-tagged PCSK9Δhelix (human, UniProt Q8NBP7 31-152; Q8NBP7 168-692); test: TR-FRET competition; His-PCSK9Δhelix, competitor Ab20
T2 construct: Construct M1-Q692 with engineered TEV site, cut by TEV protease; new N-terminus of the catalytic domain is S-A168; also called His-PCSK9Δhelix
T2 sequence (Q8NBP7 31-152, stated change not applied, chain 1 of 2): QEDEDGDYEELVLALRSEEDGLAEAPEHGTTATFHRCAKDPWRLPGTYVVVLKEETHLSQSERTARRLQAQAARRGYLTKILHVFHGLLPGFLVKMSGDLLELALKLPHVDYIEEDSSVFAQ
T2 sequence (Q8NBP7 other isoform, or with tags, fused parts or gaps mutant, chain 2 of 2): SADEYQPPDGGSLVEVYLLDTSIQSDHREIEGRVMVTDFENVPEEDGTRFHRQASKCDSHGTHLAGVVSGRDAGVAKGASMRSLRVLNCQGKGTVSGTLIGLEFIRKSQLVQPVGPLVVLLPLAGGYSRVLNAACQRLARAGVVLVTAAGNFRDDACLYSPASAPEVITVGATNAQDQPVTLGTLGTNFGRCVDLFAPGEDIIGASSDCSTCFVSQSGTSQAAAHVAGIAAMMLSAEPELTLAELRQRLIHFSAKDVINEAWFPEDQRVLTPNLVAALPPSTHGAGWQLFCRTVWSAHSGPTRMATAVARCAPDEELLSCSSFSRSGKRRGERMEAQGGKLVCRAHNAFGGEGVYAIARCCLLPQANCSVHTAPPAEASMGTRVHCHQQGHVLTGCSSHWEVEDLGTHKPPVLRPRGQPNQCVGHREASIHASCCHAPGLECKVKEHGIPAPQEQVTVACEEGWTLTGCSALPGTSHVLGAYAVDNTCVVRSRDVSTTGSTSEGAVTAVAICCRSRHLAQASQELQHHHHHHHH
Method: as §1, §2

T1 sequence (Q8NBP7 other isoform, or with tags, fused parts or gaps limits assumed): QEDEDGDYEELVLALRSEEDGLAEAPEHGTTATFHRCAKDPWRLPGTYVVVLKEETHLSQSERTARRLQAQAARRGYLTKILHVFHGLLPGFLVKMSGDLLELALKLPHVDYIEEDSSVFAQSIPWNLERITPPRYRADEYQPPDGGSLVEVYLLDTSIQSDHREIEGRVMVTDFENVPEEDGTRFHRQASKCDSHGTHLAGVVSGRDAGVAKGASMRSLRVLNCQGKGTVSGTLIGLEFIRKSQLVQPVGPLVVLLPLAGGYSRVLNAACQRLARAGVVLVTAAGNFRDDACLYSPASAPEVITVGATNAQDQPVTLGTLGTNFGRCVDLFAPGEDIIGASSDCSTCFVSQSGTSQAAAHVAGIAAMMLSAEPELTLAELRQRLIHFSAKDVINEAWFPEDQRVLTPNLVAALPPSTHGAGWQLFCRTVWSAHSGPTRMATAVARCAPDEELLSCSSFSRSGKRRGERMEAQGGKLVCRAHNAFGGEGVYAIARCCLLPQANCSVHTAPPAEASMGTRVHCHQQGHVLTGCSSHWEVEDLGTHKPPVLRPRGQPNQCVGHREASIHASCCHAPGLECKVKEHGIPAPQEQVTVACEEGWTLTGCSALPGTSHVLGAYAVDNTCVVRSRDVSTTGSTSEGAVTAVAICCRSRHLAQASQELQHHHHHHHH

Binder	IC50 [1] [µM]	IC50 [2] [µM]
WNLV[hArg]IGLLR (also: further groups not given here, Structure printed only as a drawing) [Compound 222]	21	1.4
WNLV[hArg]IGLLR (also: further groups not given here, Structure printed only as a drawing) [Compound 219]	9.9	0.68
WNLV[hArg]IGLLR (also: end groups and other groups only in drawing, Structure printed only as a drawing) [Compound 194]	≥ 50	1.9
WNLV[hArg]IGLLR (also: further groups not given here, Structure printed only as a drawing) [Compound 209]	2.9	0.45
WNLV[hArg]IGLLR (also: further groups not given here, Structure printed only as a drawing) [Compound 204]	3.6	0.87
WNLV[hArg]IGLLR (also: further groups not given here, Structure printed only as a drawing) [Compound 210]	3	0.84
WNLV[hArg]IGLLR (also: further groups not given here, Structure printed only as a drawing) [Compound 226]	6.2	0.35
Ac-WNLV[hArg]IGLLR-NH2 (also called Ac-WNLV(homoR)IGLLR-NH2) [Compound 192]	≥ 50	5.3
WNLV[hArg]IGLLR (also: further groups not given here, Structure printed only as a drawing) [Compound 215]	7	0.48
WNLV[hArg]IGLLR (also: further groups not given here, Structure printed only as a drawing) [Compound 217]	4.1	0.39
WNLV[hArg]IGLLR (also: end groups and other groups only in drawing, Structure printed only as a drawing) [Compound 193]	≥ 50	1.5
WNLV[hArg]IGLLR (also: end groups and other groups only in drawing, Structure printed only as a drawing) [Compound 199]	0.98	0.2
WNLV[hArg]IGLLR (also: further groups not given here, Structure printed only as a drawing) [Compound 207]	1.3	0.32
WNLV[hArg]IGLLR (also: further groups not given here, Structure printed only as a drawing) [Compound 214]	3	0.21
WNLV[hArg]IGLLR (also: further groups not given here, Structure printed only as a drawing) [Compound 212]	15	1.6
WNLV[hArg]IGLLR (also: further groups not given here, Structure printed only as a drawing) [Compound 213]	3.8	0.2
Pentanoyl-WNLV[hArg]IGLTR-NH2 (SMILES CCCCC(=O)N[C@@H](Cc1c[nH]c2ccccc12)C(=O)N[C@@H](CC(N)=O)C(=O)N[C@@H](CC(C)C)C(=O)N[C@H](C(=O)N[C@@H](CCCCNC(=N)N)C(=O)N[C@H](C(=O)NCC(=O)N[C@@H](CC(C)C)C(=O)N[C@H](C(=O)N[C@@H](CCCNC(=N)N)C(N)=O)[C@@H](C)O)[C@@H](C)CC)C(C)C, also called n-BuC(O)-WNLV(homoR)IGLTR-NH2) [Compound 234]	≥ 50	1.4
WNLV[hArg]IGLLQ-NH2 (N-terminus assumed; SMILES CC[C@H](C)[C@H](NC(=O)[C@H](CCCCNC(=N)N)NC(=O)[C@@H](NC(=O)[C@H](CC(C)C)NC(=O)[C@H](CC(N)=O)NC(=O)[C@@H](N)Cc1c[nH]c2ccccc12)C(C)C)C(=O)NCC(=O)N[C@@H](CC(C)C)C(=O)N[C@@H](CC(C)C)C(=O)N[C@@H](CCC(N)=O)C(N)=O, also called WNLV(homoR)IGLLQ-NH2) [Compound 237]	8.8	0.33
WNLV[hArg]IGLLN (also: further groups not given here, Structure printed only as a drawing) [Compound 238]	7.7	0.33
Pentanoyl-WNLV[hArg]IGLTR (also called n-BuC(O)-WNLV(homoR)IGLTR) [Compound 235]	≥ 50	2.7

Binder	IC50 [1] [µM]	IC50 [2] [µM]
WNLV[hArg]IGLLR (also: end groups and other groups only in drawing, Structure printed only as a drawing) [Compound 201]	3.9	1
WNLV[hArg]IGLLR (also: end groups and other groups only in drawing, Structure printed only as a drawing) [Compound 205]	2.8	0.64
WNLV[hArg]IGLLR (also: end groups and other groups only in drawing, Structure printed only as a drawing) [Compound 200]	3.2	0.67
WNLV[hArg]IGLLR (also: end groups and other groups only in drawing, Structure printed only as a drawing) [Compound 197]	0.97	0.09
WNLV[hArg]IGLLR (also: further groups not given here, Structure printed only as a drawing) [Compound 208]	0.45	0.1
WNLV[hArg]IGLLR (also: further groups not given here, Structure printed only as a drawing) [Compound 211]	14	3.8
WNLV[hArg]IGLLR (also: further groups not given here, Structure printed only as a drawing) [Compound 218]	5	0.26
WNLV[hArg]IGLLR (also: end groups and other groups only in drawing, Structure printed only as a drawing) [Compound 203]	21	1.6
WNLV[hArg]IGLLR (also: end groups and other groups only in drawing, Structure printed only as a drawing) [Compound 196]	7.3	1.4
WNLV[hArg]IGLLR (also: further groups not given here, Structure printed only as a drawing) [Compound 216]	6	0.3
WNLV[hArg]IGLLR (also: further groups not given here, Structure printed only as a drawing) [Compound 224]	7	0.53
WNLV[hArg]IGLLR (also: end groups and other groups only in drawing, Structure printed only as a drawing) [Compound 198]	1.7	0.25
WNLV[hArg]IGLLR (also: further groups not given here, Structure printed only as a drawing) [Compound 223]	21	1.4
WNLV[hArg]IGLLR (also: end groups and other groups only in drawing, Structure printed only as a drawing) [Compound 202]	2.6	0.34
WNLV[hArg]IGLLR (also: further groups not given here, Structure printed only as a drawing) [Compound 225]	27	1.8
WNLV[hArg]IGLLR (also: further groups not given here, Structure printed only as a drawing) [Compound 206]	1.8	0.87
Ac-ESYPGWNLV[hArg]IGLLR-NH2 (SMILES CC[C@H](C)[C@H](NC(=O)[C@H](CCCCNC(=N)N)NC(=O)[C@@H](NC(=O)[C@H](CC(C)C)NC(=O)[C@H](CC(N)=O)NC(=O)[C@H](Cc1c[nH]c2ccccc12)NC(=O)CNC(=O)[C@@H]1CCCN1C(=O)[C@H](Cc1ccc(O)cc1)NC(=O)[C@H](CO)NC(=O)[C@H](CCC(=O)O)NC(C)=O)C(C)C)C(=O)NCC(=O)N[C@@H](CC(C)C)C(=O)N[C@@H](CC(C)C)C(=O)N[C@@H](CCCNC(=N)N)C(N)=O) [Compound 231]	1.6	17
WNLV[hArg]IGLLR (also: further groups not given here, Structure printed only as a drawing) [Compound 221]	9.5	0.65
WNLV[hArg]IGLLR (also: further groups not given here, Structure printed only as a drawing) [Compound 220]	37	0.91
